Reference: patent publication US20220153792A1 (INSTITUTE FOR RESEARCH IN BIOMEDICINE, published 2022)

T1: histidine tagged HMGB1 (High-Mobility-Group-Protein 1) (Homo sapiens (Human), UniProt P09429 1-215, limits assumed, labeled with the his-tag specific NT-647 dye)
T1 construct: also called high-mobility protein box 1; not shown: histidine tag
T1 sequence: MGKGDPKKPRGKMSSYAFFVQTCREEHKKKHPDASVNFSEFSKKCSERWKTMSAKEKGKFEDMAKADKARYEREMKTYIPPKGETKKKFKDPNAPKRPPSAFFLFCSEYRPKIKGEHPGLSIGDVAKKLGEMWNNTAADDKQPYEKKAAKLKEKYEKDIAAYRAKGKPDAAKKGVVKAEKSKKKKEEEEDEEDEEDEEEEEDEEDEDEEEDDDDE

B1: Pentapept-2 (peptide)
peptide: ERWIH
notes: Last five residues of HBP08 (ERWIH)
B2: Pentapept-1 (peptide)
peptide: GYHYE
notes: First five residues of HBP08 (GYHYE)

Target: T1, histidine tagged HMGB1 …
Experiment: MST, NT-647-labelled His-tagged HMGB1, peptide titrated

| Binder | Kd [µM] | binding result |
| --- | --- | --- |
| B1 | 200 | – |
| B2 | – | no binding (tested: highest peptide concentration 500 µM) |
